Test results: article PMC2116414

Target: Acanthamoeba myosin-II (Acanthamoeba)
Experiment: electron microscopy

Substance: Acanthamoeba myosin-II (complex)
- stoichiometry N: 8
